In patent publication US20220096654A1, “PYRROLOBENZODIAZEPINE-ANTIBODY CONJUGATES AND USES THEREOF” (ADC THERAPEUTICS SA, priority 2020, published 2022):

Tests used:
human CD45+ cells = assay: Allogeneic stem cell transplant model in humanized NSG mice, comparison of payloads; format: in vivo; conditions: for mean % hCD45+ engraftment in the bone marrow: 8 weeks after allogeneic GFP+ cells, PBS 14.12%
Experimental: Adult NSG mice (Charles River Laboratories) were sublethally irradiated with 2.5 Gy in a ^137Cs irradiator. On the following day, mice were injected with 0.5×10^6 freshly thawed cryopreserved human CD34+ cells from a health donor were injected via the tail vein in 150 μL PBS using a 29 gauge MicroFine Plus insulin syringe (BD). Engraftment of human cells in the blood was assessed periodically from 6 weeks after transplantation. At 10 weeks post-transplant, humanized NSG mice were assigned into cohorts with similar median human CD45+ cell engraftment in the blood, as determined by flow cytometry. Mice were injected with PBS or 1 mg/kg YTH24.5-B1. Sixteen 16 days after treatment, mice were transplanted with 0.5×10^6 GFP+CD34+ cells from another healthy donor. Irradiated NSG […] were also transplanted with the GFP+CD34+ from the allogeneic healthy donor as a control for engraftment of the GFP+CD34+ cells. 8 weeks after transplantation of GFP+ cells, mice were culled and blood, spleen and bone marrow taken for analysis by flow cytometry.
Experimental schedule is as previously described in example 16 but with the following modifications. Humanized NSG mice at 10 weeks post-transplant were injected with PBS or 1 mg/kg YTH24.5-B1, YTH54.12-B1, Isotype-B1, YTH24.5-B4 and Isotype-3376. Isotype-B2 and YTH24.5-B2 was given at a dose of 5 mg/kg. Transplantation of 0.5×10^6 GFP+CD34+ from an allogeneic human donor and analysis at 8 weeks post-transplant of GFP+ cells was carried out as previously described.

293T (CD45-) = assay: Cell viability assay 5 days (PrestoBlue), 293T; format: cell-based, human; conditions: rat IgG2b ADC, n=3
Experimental: (§1) OCIM1, Jurkat and Nalm6 cells were seeded at a final concentration of 1.275×10^4/mL and for 5 days in presence of rat IgG2b Mab or ADC or medium (in triplicate) in wells of flat bottom 96-well plates. 293T cells were seeded at 9.3×10^3 cells per 100 uL per well in flat bottom 96-well plates and allowed to adhere the plate for up to 24 hours. 293T cells were subsequently cultured with rat IgG2b Mabs or ADC or medium (in triplicate wells) as described above. PrestoBlue® Cell viability Reagent (Thermo Fisher Scientific) was added to each and incubated for up to 1.5 hours. Fluorescence intensity from each well was detected using a FLUOstar OPTIMA microplate reader (BMG Labtech). Data was plotted using Prism 8.0 and sigmoid dose-response non-linear regression was used to determine EC50 values. Data points are mean±s.d. for representative experiments.

fLuc+ OCIM1 cells [1] = assay: Established AML model in NSG mice, treatment 10 days post-injection; format: in vivo; conditions: for mice alive at 60 days: cohorts of 5 mice, all tumor-bearing
Experimental: (§2) NSG mice were transplanted with 7.5×10^6 fLuc+ OCIM1 cells i.v. At 10 days post-injection of AML cells, unconjugated antibody or ADCs were injected i.v. via a tail vein at a dose of 1 mg/kg or 5 mg/kg. Mice were regularly monitored for signs of morbidity for the duration of the experiment. For imaging, mice were injected intraperitoneally with 200 μl of 15 mg/mL D-luciferin (Regis Technologies) in PBS. Mice were subsequently anesthetized with 4% isoflurane and maintained at 2% isoflurane. Ten minutes after injection of D-luciferin, mice were placed with anterior side up inside a IVIS Lumina III (PerkinElmer). A sub-saturating image was captured using the auto-exposure setting in the Living Image software (v4.5). Quantification and preparation of images was also carried out using the same software.

fLuc+ OCIM1 cells [2] = assay: AML model in NSG mice, treatment the day after cell injection; format: in vivo; conditions: 1 mg/kg or 5 mg/kg i.v. the day after OCIM1 injection
Experimental: as §2, with “7.5×10^6 luciferase expressing” for “7.5×10^6”, “On the following day,” for “At 10 days post-injection of AML cells,”, “rat IgG2b antibodies” for “antibody”

Nalm6 (CD45-) = assay: Cell viability assay 5 days (PrestoBlue), Nalm6; format: cell-based, human; conditions: rat IgG2b ADC, n=3
Experimental: as §1

Molecule | percentage GFP+ human CD34+ cells in the bone marrow (mean) (human CD45+ cells; 1 mg/kg) [%] | mean % hCD45+ engraftment in the bone marrow (human CD45+ cells; 1 mg/kg) [%] | EC50 (293T (CD45-)) [pM] | period of tumor regression / low tumor signal (fLuc+ OCIM1 cells [1]) | tumor (bioluminescence) signal (fLuc+ OCIM1 cells [2]) | EC50 (Nalm6 (CD45-)) [pM] | percentage GFP+ human CD34+ cells in the bone marrow (mean) (human CD45+ cells; 5 mg/kg) [%] | mean % hCD45+ engraftment in the bone marrow (human CD45+ cells; 5 mg/kg) [%] | time within which tumor signal increased again (fLuc+ OCIM1 cells [1]) [days] | mice alive at 60 days (fLuc+ OCIM1 cells [1])
YTH24.5-B4: rat IgG2b anti-CD45 antibody YTH24.5 conjugated to non-cleavable PBD drug-linker B4 (drawing 46) (conjugate) heavy: QVNLLQSGAALVKPGASVKLSCKASSYTFTDYYIHWVKQSHGKTLEWIGYINPKSGFTNYNEKFRRKATLTVDKSTNTAYMDISRLTSEDSATYYCTRRTGVIPMDAWGQGASVTVSSAQTTAPSVYPLAPGCGDTTSSTVTLGCLVKGYFPEPVTVTWNSGALSSDVHTFPAVLQSGLYTLTSSVTSSTWPSQTVTCNVAHPASSTKVDKKVERRNGGIGHKCPTCPTCHKCPVPELLGGPSVFIFPPKPKDILLISQNAKVTCVVVDVSEEEPDVQFSWFVNNVEVHTAQTQPREEQYNSTFRVVSALPIQHQDWMSGKEFKCKVNNKALPSPIEKTISKPKGLVRKPQVYVMGPPTEQLTEQTVSLTCLTSGFLPNDIGVEWTSNGHIEKNYKNTEPVMDSDGSFFMYSKLNVERSRWDSRAPFVCSVVHEGLHNHHVEKSISRPPGK light: DVVMTQTPVSLSVSLGGQVSISCRSSQSFVSSDGNTYLNWYLQKPGQSPQLLIYKVSNRLSGVPDRFSGSGSGTDFTLKISRVEHDDLGVYYCGQASKIPLTFGSGTKLEIKRADAAPTVSIFPPSMEQLTSGGATVVCFVNNFYPRDISVKWKIDGSEQRDGVLDSVTDQDSKDSTYSMSSTLSLTKVEYERHNLYTCEVVHKTSSSPVVKSFNRNEC | 57.95 | 7.34 | > 6000 | marginally longer period of low tumor signal than YTH24.5-B1 | Low/absent tumor signal | 162 | – | – | – | –
YTH24.5-B2: rat IgG2b anti-CD45 antibody YTH24.5 conjugated to PBD drug-linker B2 (drawing 44) (conjugate) heavy: QVNLLQSGAALVKPGASVKLSCKASSYTFTDYYIHWVKQSHGKTLEWIGYINPKSGFTNYNEKFRRKATLTVDKSTNTAYMDISRLTSEDSATYYCTRRTGVIPMDAWGQGASVTVSSAQTTAPSVYPLAPGCGDTTSSTVTLGCLVKGYFPEPVTVTWNSGALSSDVHTFPAVLQSGLYTLTSSVTSSTWPSQTVTCNVAHPASSTKVDKKVERRNGGIGHKCPTCPTCHKCPVPELLGGPSVFIFPPKPKDILLISQNAKVTCVVVDVSEEEPDVQFSWFVNNVEVHTAQTQPREEQYNSTFRVVSALPIQHQDWMSGKEFKCKVNNKALPSPIEKTISKPKGLVRKPQVYVMGPPTEQLTEQTVSLTCLTSGFLPNDIGVEWTSNGHIEKNYKNTEPVMDSDGSFFMYSKLNVERSRWDSRAPFVCSVVHEGLHNHHVEKSISRPPGK light: DVVMTQTPVSLSVSLGGQVSISCRSSQSFVSSDGNTYLNWYLQKPGQSPQLLIYKVSNRLSGVPDRFSGSGSGTDFTLKISRVEHDDLGVYYCGQASKIPLTFGSGTKLEIKRADAAPTVSIFPPSMEQLTSGGATVVCFVNNFYPRDISVKWKIDGSEQRDGVLDSVTDQDSKDSTYSMSSTLSLTKVEYERHNLYTCEVVHKTSSSPVVKSFNRNEC | – | – | > 6000 | shortest period of tumor regression | Low/absent tumor signal | 30.1 | 72.14 | 1.089 | ≤ 10 | 1/5
YTH54.12-B4: rat IgG2b anti-CD45 antibody YTH54.12 conjugated to non-cleavable PBD drug-linker B4 (drawing 46) (conjugate) heavy: EVQLVESGGGLVQPGGSMKLSCAASGFTFSDYYMAWVRQAPKKGLEWVASMSFAGSSTYYGDSVKGRFTISRDNAKTTLYLQMNSLRSEDTATYYCARMYTTDYYLYWYFDFWGPGTMVTVSSAQTTAPSVYPLAPGCGDTTSSTVTLGCLVKGYFPEPVTVTWNSGALSSDVHTFPAVLQSGLYTLTSSVTSSTWPSQTVTCNVAHPASSTKVDKKVERRNGGIGHKCPTCPTCHKCPVPELLGGPSVFIFPPKPKDILLISQNAKVTCVVVDVSEEEPDVQFSWFVNNVEVHTAQTQPREEQYNSTFRVVSALPIQHQDWMSGKEFKCKVNNKALPSPIEKTISKPKGLVRKPQVYVMGPPTEQLTEQTVSLTCLTSGFLPNDIGVEWTSNGHIEKNYKNTEPVMDSDGSFFMYSKLNVERSRWDSRAPFVCSVVHEGLHNHHVEKSISRPPGK light: DVQMTQSPSYLAASPGESVSISCKASKSISNYLAWYQQKPGEANKILIYSGSTLQSGTPSRFSGSGSGTDFSLTIRNLEPEDFAVYYCQQYDEKPLTFGSGTKLEIKRADAAPTVSIFPPSMEQLTSGGATVVCFVNNFYPRDISVKWKIDGSEQRDGVLDSVTDQDSKDSTYSMSSTLSLTKVEYERHNLYTCEVVHKTSSSPVVKSFNRNEC | – | – | > 6000 | – | – | 715 | – | – | – | 4/5
